Experimental findings from publication doi:10.1101/2025.11.12.687969 (bioRxiv, 2025) are described below.

In this assay the target is EGFP–TDP-43 (human, UniProt Q13148 1-414). The experiment in a line: co-IP.

B1: Myc–TDP-43 ΔNLS (natural protein, human, UniProt Q13148-1 1-414, looked up)
chain: MSEYIRVTEDENDEPIEIPSEDDGTVLLSTVTAQFPGACGLRYRNPVSQCMRGVRLVEGILHAPDAGWGNLVYVVNYPKDNAAAMDETDASSAVKVKRAVQKTSDLIVLGLPWKTTEQDLKEYFSTFGEVLMVQVKKDLKTGHSKGFGFVRFTEYETQVKVMSQRHMIDGRWCDCKLPNSKQSQDEPLRSRKVFVGRCTEDMTEDELREFFSQYGDVMDVFIPKPFRAFAFVTFADDQIAQSLCGEDLIIKGISVHISNAEPKHNSNRQLERSGRFGGNPGGFGNQGGFGNSRGGGAGLGNNQGSNMGGGMNFGAFSINPAMMAAAQAALQSSWGMMGMLASQQNQSGPSGNNQNQGNMQREPNQAFGSGNNSYSGSNSGAAIGWGSASNAGSGSGFNGGFGSSMDSKSSGWGM
As for B1, the “reduction of the association index relative to WT (log2)” value came out at 0.77 log2 units.
